The values below come from patent publication CN116813769A (FUZHOU CREMAB PHARMACEUTICAL INC, dated 2023).

Test [1] deals with T1, 人CD47胞外段-His tag重组蛋白 (SinoBiological 12283-H08H) (human, UniProt Q08722 19-139).
T1 construct: extracellular domain; Bought reagent; Captured on HIS1K sensor; also called CD47-his tag蛋白
The test is described as follows: BLI (Octet K2), HIS1K sensor loaded with CD47-his tag, antibody in solution, 1:1 fit.

For test [2], the target named is T2, 经生物素标记的CD47-hFc蛋白 (biotin-labelled CD47-hFc protein, expressed in house) (UniProt Q08722 19-141, biotin-labelled (site not stated)).
T2 construct: Self-expressed; Captured on SA sensor
T2 sequence (Q08722 19-141): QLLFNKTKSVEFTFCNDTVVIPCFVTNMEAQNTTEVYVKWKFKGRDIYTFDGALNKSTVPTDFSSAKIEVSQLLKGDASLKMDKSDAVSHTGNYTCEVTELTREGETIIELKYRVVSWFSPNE
The test can be described thus: BLI (Octet K2), SA sensor loaded with biotinylated CD47-hFc, antibody in solution, 1:1 fit. On the technique in general: BLI is a label-free optical method that tracks binding on a fibre tip over time.

T1 sequence (Q08722 19-139 limits assumed): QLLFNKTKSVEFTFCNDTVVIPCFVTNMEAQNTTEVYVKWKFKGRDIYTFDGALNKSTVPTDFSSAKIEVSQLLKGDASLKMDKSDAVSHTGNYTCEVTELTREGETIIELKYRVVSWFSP

B1: 7DC4 (antibody, human IgG1, kappa, V domains shown)
VH: QVQLKQSGAELVQPGASVKLSCKASGYTFTNYYMYWLRQRPGQGLEWIGEINPSNGGTDFNEKFKSKATLTVDKSSSTAFMQLSSLTSDDSAVYYCARGGFTMDYWGQGTTVTVSS
VL: DVVMTQTPLSLPVSLGDQASISCRSSQSLVHSNGNTYLHWYLQKPGQSPKLLIYKVSNRFSGVPDRFSGSGSGTDFTLKISRVEAEDLGVYFCSQSTHVPLTFGAGTKLELKR
notes: Full-length chimeric antibody (mouse variable regions, human constant regions); also called 7DC4抗体
For the molecule B1, the Kd – broadly, the constant that tells how readily two partners part at equilibrium – in test [1] amounted to 0.0202 nM; in test [2], 0.0276 nM.

B2: 7DC2 (antibody, human IgG1, kappa, V domains shown)
VH: QVQLQQSGPELVKPGASVKMSCKASGYTFTNYFMHWVKQKPGQGLEWIGYINPYNDGTKYNEKFKGKATLTSDKSSSTAYMELSSLTSEDSAVYYCTKGGRYSMDYWGQGTTLTVSS
VL: DVVMTQTPLSLPVRLGDEVSISCRSSQTIVFTNGNTYLEWYLQKPGQSPKLLIYKVSNRFSGVPDRFSGSGSGTDFTLTISRVEAEDLGIYYCFQGSHVPYTFGGGTKLELKR
notes: Full-length chimeric antibody (mouse variable regions, human constant regions); also called 7DC2抗体
For B2, the Kd was 0.221 nM in test [1] and 0.192 nM in test [2].
